Experimental findings from patent US20080176285 are described below.

One data set concerns the target porcine uteroferrin (UniProt P09889).
The target of another data set is RNAse B (UniProt P61823).
UniProt P61823, sequence (P61823 27-150): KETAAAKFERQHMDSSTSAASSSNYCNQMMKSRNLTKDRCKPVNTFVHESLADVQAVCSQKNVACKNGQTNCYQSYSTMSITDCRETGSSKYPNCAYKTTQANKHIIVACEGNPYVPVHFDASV

UniProt P09889, sequence (P09889 22-340): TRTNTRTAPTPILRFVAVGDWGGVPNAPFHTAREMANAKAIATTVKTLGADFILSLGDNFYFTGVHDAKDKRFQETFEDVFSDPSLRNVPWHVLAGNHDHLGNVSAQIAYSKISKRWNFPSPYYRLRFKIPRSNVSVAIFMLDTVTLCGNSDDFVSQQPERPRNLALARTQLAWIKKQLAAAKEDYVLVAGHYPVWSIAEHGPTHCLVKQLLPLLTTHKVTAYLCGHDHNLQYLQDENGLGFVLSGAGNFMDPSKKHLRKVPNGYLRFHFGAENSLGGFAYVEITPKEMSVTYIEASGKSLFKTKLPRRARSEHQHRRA

For the substance “bovine GlcNAc-phosphotransferase (UDP-N-acetylglucosamine: lysosomal enzyme N-acetylglucosamine-1-phosphotransferase)”, the figures for the “Km as acceptor for the transfer of GlcNAc-1-P” value in the data set with porcine uteroferrin, in the data set on cathepsin D and with RNAse B were “Kms below 20 µM”, “Kms below 20 µM” and “the Km was not reached at the solubility limit of the protein (at 600 µM)”, respectively.
